# According to article PMC2794159:
# Molecular target: MBD4 (methyl-CpG binding domain protein 4) (mouse, UniProt Q9Z2D7 1-554)
# Assay: EMSA
# MBD4 (methyl-CpG binding domain protein 4), sequence (Q9Z2D7 whole entry, the tested form may be a part): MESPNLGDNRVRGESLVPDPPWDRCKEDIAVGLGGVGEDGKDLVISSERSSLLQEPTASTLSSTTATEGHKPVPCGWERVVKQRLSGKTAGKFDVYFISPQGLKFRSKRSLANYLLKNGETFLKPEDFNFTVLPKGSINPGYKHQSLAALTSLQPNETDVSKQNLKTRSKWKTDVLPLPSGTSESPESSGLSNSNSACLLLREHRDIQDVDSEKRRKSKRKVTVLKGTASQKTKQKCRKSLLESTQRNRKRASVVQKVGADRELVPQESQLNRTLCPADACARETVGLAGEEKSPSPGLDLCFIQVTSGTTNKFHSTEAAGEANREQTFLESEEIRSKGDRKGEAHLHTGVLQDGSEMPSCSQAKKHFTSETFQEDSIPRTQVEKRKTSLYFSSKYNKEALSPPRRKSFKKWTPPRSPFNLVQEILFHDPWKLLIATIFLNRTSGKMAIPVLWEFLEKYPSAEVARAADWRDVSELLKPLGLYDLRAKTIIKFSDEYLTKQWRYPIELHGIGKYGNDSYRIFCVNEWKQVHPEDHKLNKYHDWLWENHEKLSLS
binder,measurement,value
"GGTCGGGGTAGCGGCTGAATCGCTGCACGCCGTAGGTCACGCG (ssDNA, m5C at position 21 (m5CpG); 3' cgcg phosphorothioate) [m5CpGGFP ssODN alone]",binding result,no binding
